Literature values, collected in paper PMC5081098.

Molecular target: CCL21 (Homo sapiens) (UniProt O00585)
Chain of UniProt O00585 (O00585 24-134): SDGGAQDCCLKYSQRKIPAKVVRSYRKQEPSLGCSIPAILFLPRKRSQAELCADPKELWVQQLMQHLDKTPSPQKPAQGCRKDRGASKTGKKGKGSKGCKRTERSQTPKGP

Kd: 70 nM
Substance: podoplanin (from UniProt Q86YL7)
